Test [1] concerns the target T1, human CD228 (R&D Systems Custom02; Lot DCWR021505A) (human, UniProt P08582 20-709, limits assumed).
T1 construct: Bought custom protein coated on ELISA plates; also called CD228 protein; melanotransferrin
T1 sequence (looked up): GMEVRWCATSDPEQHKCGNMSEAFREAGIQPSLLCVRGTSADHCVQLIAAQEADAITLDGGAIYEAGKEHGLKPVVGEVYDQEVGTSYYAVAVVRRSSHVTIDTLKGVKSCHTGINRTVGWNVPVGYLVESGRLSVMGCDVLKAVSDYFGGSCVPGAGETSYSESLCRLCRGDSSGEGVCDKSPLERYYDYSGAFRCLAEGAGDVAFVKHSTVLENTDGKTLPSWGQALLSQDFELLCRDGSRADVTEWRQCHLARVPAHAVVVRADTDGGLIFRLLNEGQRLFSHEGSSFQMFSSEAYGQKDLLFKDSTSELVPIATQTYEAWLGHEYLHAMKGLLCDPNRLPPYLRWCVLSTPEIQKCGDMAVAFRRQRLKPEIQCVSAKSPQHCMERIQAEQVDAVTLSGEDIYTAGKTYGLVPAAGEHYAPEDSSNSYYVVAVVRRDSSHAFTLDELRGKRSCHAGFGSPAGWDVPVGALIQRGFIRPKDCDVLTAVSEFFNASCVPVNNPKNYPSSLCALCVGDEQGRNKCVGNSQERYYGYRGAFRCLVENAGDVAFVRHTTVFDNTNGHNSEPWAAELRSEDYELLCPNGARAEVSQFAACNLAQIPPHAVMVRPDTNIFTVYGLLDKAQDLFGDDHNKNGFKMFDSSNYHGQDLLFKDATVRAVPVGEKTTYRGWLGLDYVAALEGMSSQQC
The experiment in a line: ELISA, coated human CD228, pH 6.30. The protocol: (§1) Briefly, 100 ng of human CD228 (R&D Systems Custom02; Lot DCWR021505A) or BSA (Sigma; Catalog No. A7030-100G) were diluted in PBS and added to each well overnight at 4° C. Plates were then washed three times with PBS-T (EMD Millipore; Catalog No. 5246531EA). After washing, plates were blocked with 3% (w/v) BSA in PBS-T for 1 hour at room temperature. Excess blocking buffer was then removed and the primary antibody was added in 3-fold dilutions in diluent buffer (0.15M citrate-phosphate buffer pH 4.0-7.5) starting at an antibody concentration of 60 nM. After incubating for 1 hour at room temperature, the plates were washed 3 times and then incubated with secondary antibody (Goat anti-human IgG Fc-specific HRP-conjugated, Jackson ImmunoResearch code #109-035-098) in PBS-T with 1% BSA. After incubating for 30 minutes at room temperature, plates were washed 3 times. 100 μl TMB substrate (Life Technologies-, Cat #002023) was then added to each well. After incubating 10 minutes at room temperature, 100 μl H₂SO₄ was added to each well to stop the reaction, plates were covered with clear plate seal and read on an Envision at […]. pH-dependent binding for hL49 and nine variants with histidine substituted to alanine, glutamine, or tyrosine in the light chain CDRs are shown in FIG. 1A-1I. […] The triple mutants have lower affinity overall compared to hL49.

In test [2] the target is T1, human CD228 (R&D Systems Custom02; Lot …). Put plainly: ELISA, coated human CD228, pH 7.40. The protocol: as §1
Test [3] shares this target. The experiment in a line: BLI (Octet Red 384), antibody as ligand, antigen as analyte. The method, then:
The binding kinetics of hL49, hL49_34Ala, and hL49_Tyr were determined using BioLayer Interferometry (BLI) technology in an Octet Red 384 instrument using the antibodies as the ligands and the antigen as the analyte. […] In contrast, hL49_34Tyr has a slower on-rate but a similar off-rate compared to wild-type hL49, which may explain its reduced affinity on cells.

For test [4] the target is unchanged. The experiment in a line: ELISA on CD228 protein, neutral pH (rounded form of Table 2, pH 7.40).
For test [5], the target named is T2, CD228 on A375 and A2058 cells (human, UniProt P08582 20-709).
T2 construct: whole, on cells; GPI-anchored cell surface protein; also called CD228 on A375 cells; CD228 on A2058 cells
T2 sequence (looked up): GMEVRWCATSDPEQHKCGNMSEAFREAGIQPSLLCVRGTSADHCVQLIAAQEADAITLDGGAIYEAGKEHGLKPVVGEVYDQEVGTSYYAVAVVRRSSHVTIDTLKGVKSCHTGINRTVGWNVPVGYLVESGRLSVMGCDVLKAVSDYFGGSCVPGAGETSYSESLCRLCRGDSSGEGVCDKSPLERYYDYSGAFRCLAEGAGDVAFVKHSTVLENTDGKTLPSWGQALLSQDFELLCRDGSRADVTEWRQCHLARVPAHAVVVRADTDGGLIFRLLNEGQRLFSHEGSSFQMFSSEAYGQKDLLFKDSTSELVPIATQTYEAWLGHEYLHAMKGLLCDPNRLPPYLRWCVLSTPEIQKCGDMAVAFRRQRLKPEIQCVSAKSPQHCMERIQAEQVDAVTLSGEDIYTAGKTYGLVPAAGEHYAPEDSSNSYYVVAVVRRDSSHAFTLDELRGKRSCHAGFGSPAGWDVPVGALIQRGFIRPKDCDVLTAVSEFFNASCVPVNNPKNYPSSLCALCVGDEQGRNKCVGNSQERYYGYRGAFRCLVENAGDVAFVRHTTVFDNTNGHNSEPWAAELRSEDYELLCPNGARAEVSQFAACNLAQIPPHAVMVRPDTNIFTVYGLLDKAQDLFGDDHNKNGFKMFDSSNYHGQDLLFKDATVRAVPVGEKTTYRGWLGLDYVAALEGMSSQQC
Put plainly: flow cytometry saturation binding on A375 cells (~18K receptors), neutral pH. The method, then: (§2) The ability of various anti-CD228 antibodies to bind to CD228 on A375 cells, A2058 cells, and CD228 protein was evaluated at neutral pH using a saturation binding assay. Briefly, 1×10⁵ A2058 or A375 cells that have either 40,000 or 18,000 copies of CD228 respectively, were aliquoted per well of a 96-well v-bottom plates. Each CD228 antibody was added in concentrations ranging from 0.66 pM to 690 nM and incubated on ice for 60 minutes. Cells were pelleted and washed 3× with PBS/BSA followed by addition of 10 μg/ml of a PE labeled anti-human IgG goat secondary antibody and incubated on ice for an additional 60 minutes. Cells were pelleted and washed 3× with PBS/BSA and resuspended in 125 μL of PBS/BSA. Fluorescence was analyzed by flow cytometry, using percent of saturated fluorescent signal to determine percent bound and to subsequently calculate apparent KID. […] The histidine 34 variants show large differences for substitutions with alanine, glutamine, and tyrosine.

Test [6] has as its target T2, CD228 on A375 and A2058 cells. Put plainly: flow cytometry saturation binding on A2058 cells (~40K receptors), neutral pH. The method, then:
as §2

For test [7], the target named is T1, human CD228 (R&D Systems Custom02; Lot …). The experiment in a line: ELISA, coated human CD228, pH 5.60. The protocol:
as §1

The target is the same in test [8]. The experiment in a line: ELISA, coated human CD228, pH 4.55. The protocol: as §1

B1: hL49 (antibody, V domains shown)
VH: QVQLQESGPGLVKPSETLSLTCTVSGDSITSGYWNWIRQPPGKGLEYIGYISDSGITYYNPSLKSRVTISRDTSKNQYSLKLSSVTAADTAVYYCARRTLATYYAMDYWGQGTLVTVSS
VL: DFVMTQSPLSLPVTLGQPASISCRASQSLVHSDGNTYLHWYQQRPGQSPRLLIYRVSNRFSGVPDRFSGSGSGTDFTLKISRVEAEDVGVYYCSQSTHVPPTFGQGTKLEIK
notes: Humanized antibody; Only variable domains are tied to it; also called hL49 HALC; hL49 WT
In the case of B1, the concentration for a half-maximal effect (EC50) was determined as 136 nM in test [1]; 1.76 nM in test [2]; 1.8 nM in test [4]; 1.1 nM in test [5]; 0.6 nM in test [6]. The same molecule showed a dissociation constant Kd in test [3] of 13.1 nM. In addition, the “kobs” value in test [3] came out at 0.0853 s⁻¹. In addition, in test [3], the koff turned out to be 0.0011 s⁻¹. This molecule gave an association rate constant (kon) in test [3] of 84200 M⁻¹ s⁻¹.

B2: hL49_34_Gln (antibody, V domains shown)
VH: QVQLQESGPGLVKPSETLSLTCTVSGDSITSGYWNWIRQPPGKGLEYIGYISDSGITYYNPSLKSRVTISRDTSKNQYSLKLSSVTAADTAVYYCARRTLATYYAMDYWGQGTLVTVSS
VL: DFVMTQSPLSLPVTLGQPASISCRASQSLVHSDGNTYLQWYQQRPGQSPRLLIYRVSNRFSGVPDRFSGSGSGTDFTLKISRVEAEDVGVYYCSQSTHVPPTFGQGTKLEIK
notes: hL49 variant with the light chain CDR-L1 histidine 34 changed to glutamine
For B2, the EC50 in test [7] was found to be 169 nM; in test [1], 23.4 nM; in test [2], 1.65 nM; in test [4], 1.7 nM; in test [5] it was 5.5 nM; in test [6], 2.1 nM.

B3: hL49_3X_Tyr (antibody, V domains shown)
VH: QVQLQESGPGLVKPSETLSLTCTVSGDSITSGYWNWIRQPPGKGLEYIGYISDSGITYYNPSLKSRVTISRDTSKNQYSLKLSSVTAADTAVYYCARRTLATYYAMDYWGQGTLVTVSS
VL: DFVMTQSPLSLPVTLGQPASISCRASQSLVYSDGNTYLYWYQQRPGQSPRLLIYRVSNRFSGVPDRFSGSGSGTDFTLKISRVEAEDVGVYYCSQSTYVPPTFGQGTKLEIK
notes: hL49 triple mutant: all three light chain CDR histidines changed to tyrosine
Consider B3, for which the EC50 in test [1] is 74.6 nM; in test [2], 5.43 nM; in test [4], 5.4 nM; in test [5], 2.1 nM; in test [6] it was 1.3 nM.

B4: hL49_3X_Gln (antibody, V domains shown)
VH: QVQLQESGPGLVKPSETLSLTCTVSGDSITSGYWNWIRQPPGKGLEYIGYISDSGITYYNPSLKSRVTISRDTSKNQYSLKLSSVTAADTAVYYCARRTLATYYAMDYWGQGTLVTVSS
VL: DFVMTQSPLSLPVTLGQPASISCRASQSLVQSDGNTYLQWYQQRPGQSPRLLIYRVSNRFSGVPDRFSGSGSGTDFTLKISRVEAEDVGVYYCSQSTQVPPTFGQGTKLEIK
notes: hL49 triple mutant: all three light chain CDR histidines changed to glutamine; also called 3X-Gin
For the molecule B4, the EC50 in test [1] came out at 52.6 nM; in test [2], 14.6 nM; in test [4], 14.6 nM; in test [5], 2.1 nM; in test [6], 1.3 nM.

B5: hL49_27D_Ala (antibody, V domains shown)
VH: QVQLQESGPGLVKPSETLSLTCTVSGDSITSGYWNWIRQPPGKGLEYIGYISDSGITYYNPSLKSRVTISRDTSKNQYSLKLSSVTAADTAVYYCARRTLATYYAMDYWGQGTLVTVSS
VL: DFVMTQSPLSLPVTLGQPASISCRASQSLVASDGNTYLHWYQQRPGQSPRLLIYRVSNRFSGVPDRFSGSGSGTDFTLKISRVEAEDVGVYYCSQSTHVPPTFGQGTKLEIK
notes: hL49 variant with the light chain CDR-L1 histidine 27D changed to alanine
For the molecule B5, the EC50 in test [8] was 460 nM; in test [7] it was 9.14 nM; in test [1] it was 0.99 nM; in test [2], 0.55 nM; in test [4], 0.6 nM; in test [5], 1.1 nM. In test [6], a half-maximal effect (EC50) was put at 0.6 nM.

B6: hL49_3X_Ala (antibody, V domains shown)
VH: QVQLQESGPGLVKPSETLSLTCTVSGDSITSGYWNWIRQPPGKGLEYIGYISDSGITYYNPSLKSRVTISRDTSKNQYSLKLSSVTAADTAVYYCARRTLATYYAMDYWGQGTLVTVSS
VL: DFVMTQSPLSLPVTLGQPASISCRASQSLVASDGNTYLAWYQQRPGQSPRLLIYRVSNRFSGVPDRFSGSGSGTDFTLKISRVEAEDVGVYYCSQSTAVPPTFGQGTKLEIK
notes: hL49 triple mutant: all three light chain CDR histidines (two in CDR-L1, one in CDR-L3) changed to alanine
As for B6, the EC50 worked out at 108 nM in test [8]; 405 nM in test [7]; 73.8 nM in test [1]; 4.46 nM in test [2]; 4.5 nM in test [4]; 1.4 nM in test [5]. The molecule further gave an EC50 in test [6] of 0.9 nM.

B7: hL49_34_Ala (antibody, V domains shown)
VH: QVQLQESGPGLVKPSETLSLTCTVSGDSITSGYWNWIRQPPGKGLEYIGYISDSGITYYNPSLKSRVTISRDTSKNQYSLKLSSVTAADTAVYYCARRTLATYYAMDYWGQGTLVTVSS
VL: DFVMTQSPLSLPVTLGQPASISCRASQSLVHSDGNTYLAWYQQRPGQSPRLLIYRVSNRFSGVPDRFSGSGSGTDFTLKISRVEAEDVGVYYCSQSTHVPPTFGQGTKLEIK
notes: hL49 variant with the light chain CDR-L1 histidine 34 changed to alanine; also called hL49_H34A
Take B7: the EC50 in test [7] was found to be 271 nM; in test [1] it was 16.5 nM; in test [2], 1.2 nM; in test [4], 1.2 nM; in test [5] it was 1.6 nM; in test [6], 1.3 nM. The Kd in test [3] stood at 15.8 nM. In addition, in test [3], the “kobs” value was 0.282 s⁻¹. In test [3], this molecule showed a koff of 0.00438 s⁻¹. This molecule returned a kon in test [3] of 277000 M⁻¹ s⁻¹.

B8: hL49_34_Tyr (antibody, V domains shown)
VH: QVQLQESGPGLVKPSETLSLTCTVSGDSITSGYWNWIRQPPGKGLEYIGYISDSGITYYNPSLKSRVTISRDTSKNQYSLKLSSVTAADTAVYYCARRTLATYYAMDYWGQGTLVTVSS
VL: DFVMTQSPLSLPVTLGQPASISCRASQSLVHSDGNTYLYWYQQRPGQSPRLLIYRVSNRFSGVPDRFSGSGSGTDFTLKISRVEAEDVGVYYCSQSTHVPPTFGQGTKLEIK
notes: hL49 variant with the light chain CDR-L1 histidine 34 changed to tyrosine; also called hL49_H34Y; hL49_Tyr
On to B8, for which, in test [3], the affinity, expressed as Kd, was 132 nM; the “kobs” value stood at 0.0113 s⁻¹; the koff worked out at 0.00132 s⁻¹; the kon came to 10000 M⁻¹ s⁻¹. This molecule yielded an EC50 in test [5] of 79 nM. Moreover, it took 11.2 nM to reach a half-maximal effect in test [6] (EC50).

The values above are taken from patent US20230295330A1 (Seagen, published 2023).
